This is an account of results in patent US20140205597A1.

The target in experiment [1] is analytical polyclonal antibody obtained in Example 2. As to the kind of experiment: SPR Biacore T100, immobilized polyclonal, 500 nM ISV.
The target of experiment [2] is affinity purified antibody IHuP#002-001-ABL-08. Nature of the experiment: ECL bridging/competition assay, 10 ug/ml ISV vs tagged ISV.
Experiment [3] addresses serum sample IHUS#B09032311A1. As to the kind of experiment: ECL displacement assay, variant competes with tagged SEQ ID NO:1.
Experiment [4] addresses serum sample IHUS#B09032311A20. Described as above.
In experiment [5] the target is serum sample IHUS#B09032311A3. Described as above.

B1: Nb3.10 (VHH)
VHH: EVQLVESGGGLVQAGGSLRLSCAASRSIGRLDRMGWYRHRPGEPRELVATITGGSSINYGDSVKGRFTISIDNSKNTVYLQMNSLRPEDTAVYYCNFNKYVTSRDTWGQGTLVTVSS
In experiment [1], B1 had a Binding (RU) of 91 RU.

B2: Nb3.15 (VHH)
VHH: EVQLVESGGGSVQPGGSLRLSCAASRSIGRLDRMGWYRHRPGEPRELVATITGGSSINYGDSVKGRFTISIDNSKNTVYLQMNSLRPEDTAVYYCNFNKYVTSRDTWGQGTLVTVSS
Molecule B2 registered a Binding (RU) in experiment [1] of 22 RU.

B3: Nb3.1 (VHH)
VHH: EVQLVESGGGLVQAGGSLRLSCAASRSIGRLDRMGWYRHRTGEPRELVATITGGSSINYGDFVKGRFTISIDNAKNTVYLQMNNLKPEDTAVYYCNFNKYVTSRDTWGQGTQVTVSS
The molecule B3 returned a Binding (RU) in experiment [1] of 2 RU.

B4: Nb3.14 (VHH)
VHH: EVQLVESGGGLVQPGGSLRLSCAASRSIGRLDRMGWYRHRPGEPRELVATITGGSSINYGDSVKGRFTISIDNSKNTVYLQMNSLRPEDTAVYYCNFNKYVTSRDTWGQGTLVQVSS
B4 registered a Binding (RU) in experiment [1] of 79 RU.

B5: Nb3.13 (VHH)
VHH: EVQLVESGGGLVQPGGSLRLSCAASRSIGRLDRMGWYRHRPGEPRELVATITGGSSINYGDSVKGRFTISIDNSKNTVYLQMNSLRPEDTAVYYCNFNKYVTSRDTWGQGTQVTVSS
On to B5, for which the Binding (RU) in experiment [1] amounted to 90 RU.

B6: Nb3.11 (VHH)
VHH: EVQLVESGGGLVQPGGSLRLSCAASRSIGRLDRMGWYRHRPGEPRELVATITGGSSINYGDSVKGRFTISIDNSKNTVYLQMNSLKPEDTAVYYCNFNKYVTSRDTWGQGTLVTVSS
The molecule B6 gave a Binding (RU) in experiment [1] of 88 RU.

B7: Nb3.12 (VHH)
VHH: EVQLVESGGGLVQAGGSLRLSCAASRSIGRLDRMGWYRHRPGEPRELVATITGGSSINYGDSVKGRFTISIDNSKNTVYLQMNSLRPEDTAVYYCNFNKYVTSRDTWGQGTQVTVSS
Consider B7, for which the Binding (RU) in experiment [1] came to 86 RU.

B8: Nb4.1 (VHH)
VHH: EVQLVESGGGLVQPGGSLRLSCAASGSVFKINVMAWYRQAPGKGRELVAGIISGGSTSYADSVKGRFTISRDNAKNTLYLQMNSLRPEDTAVYYCAFITTESDYDLGRRYWGQGTLVTVSS
In turn, B8 displayed a Binding (RU) in experiment [1] of 51 RU.

B9: Nb6.2 (VHH)
VHH: EVQLVESGGGLVQPGGSLRLSCIASGLPFSTKSMGWFRQAPGKEREFVARISPGGTSRYYGDFVKGRFAISRDNAKNTTWLQMNSLKAEDTAVYYCASGERSTYIGSNYYRTNEYDYWGTGTQVTVSS
The molecule B9 showed a Binding (RU) in experiment [1] of 39 RU.

B10: Example 1C: wildtype VHH (SEQ ID NO: 23) (VHH)
VHH: EVQLVESGGGLVQAGGSLRLSCAASGRTFNNYAMGWFRRAPGKEREFVAAITRSGVRSGVSAIYGDSVKDRFTISRDNAKNTLYLQMNSLKPEDTAVYTCAASAIGSGALRRFEYDYSGQGTQVTVSS
For the molecule B10, the % reduction in experiment [2] is 7.3%; in experiment [3], 4%; in experiment [4] it was 53%; in experiment [5] it was 20%. The ECLU confirmatory assay in experiment [2] worked out at 2710 ECLU; in experiment [3], 60 ECLU; in experiment [4], 8680 ECLU; in experiment [5], 1780 ECLU.

B11: Example 1C: (A14P) (SEQ ID NO: 24) (VHH)
VHH: EVQLVESGGGLVQPGGSLRLSCAASGRTFNNYAMGWFRRAPGKEREFVAAITRSGVRSGVSAIYGDSVKDRFTISRDNAKNTLYLQMNSLKPEDTAVYTCAASAIGSGALRRFEYDYSGQGTQVTVSS
Take B11: the % reduction was determined as 90.8% in experiment [2], 10% in experiment [3], 96% in experiment [4] and 91% in experiment [5]. Also, the ECLU confirmatory assay in experiment [2] is 268 ECLU; in experiment [3], 56 ECLU; in experiment [4], 668 ECLU; in experiment [5], 205 ECLU.

B12: Example 1C: (K83R) (SEQ ID NO: 25) (VHH)
VHH: EVQLVESGGGLVQAGGSLRLSCAASGRTFNNYAMGWFRRAPGKEREFVAAITRSGVRSGVSAIYGDSVKDRFTISRDNAKNTLYLQMNSLRPEDTAVYTCAASAIGSGALRRFEYDYSGQGTQVTVSS
Take B12: the % reduction in experiment [2] is 15.7%; in experiment [3] it was 1%; in experiment [4] it was 63%; in experiment [5] it was 37%. Further, the ECLU confirmatory assay in experiment [2] worked out at 2460 ECLU; in experiment [3], 62 ECLU; in experiment [4], 6910 ECLU; in experiment [5], 1400 ECLU.

B13: Example 1C: (Q108L) (SEQ ID NO: 26) (VHH)
VHH: EVQLVESGGGLVQAGGSLRLSCAASGRTFNNYAMGWFRRAPGKEREFVAAITRSGVRSGVSAIYGDSVKDRFTISRDNAKNTLYLQMNSLKPEDTAVYTCAASAIGSGALRRFEYDYSGQGTLVTVSS
Regarding B13, the % reduction in experiment [2] came to 13.2%; in experiment [3], 5%; in experiment [4] it was 62%; in experiment [5] it was 31%. Moreover, the ECLU confirmatory assay came to 2530 ECLU in experiment [2], 59 ECLU in experiment [3], 6990 ECLU in experiment [4] and 1530 ECLU in experiment [5].

B14: Example 1C: (A14P, K83R, Q108L) (SEQ ID NO: 27) (VHH)
VHH: EVQLVESGGGLVQPGGSLRLSCAASGRTFNNYAMGWFRRAPGKEREFVAAITRSGVRSGVSAIYGDSVKDRFTISRDNAKNTLYLQMNSLRPEDTAVYTCAASAIGSGALRRFEYDYSGQGTLVTVSS
B14: the % reduction in experiment [2] came to 89.1%; in experiment [3], 8%; in experiment [4], 97%; in experiment [5] it was 93%. Moreover, the ECLU confirmatory assay was 319 ECLU in experiment [2], 57 ECLU in experiment [3], 628 ECLU in experiment [4] and 156 ECLU in experiment [5].

B15: Example 1C: (A14P, R39Q, K83R, T91Y, Q108L) (SEQ ID NO: 28) (VHH)
VHH: EVQLVESGGGLVQPGGSLRLSCAASGRTFNNYAMGWFRQAPGKEREFVAAITRSGVRSGVSAIYGDSVKDRFTISRDNAKNTLYLQMNSLRPEDTAVYYCAASAIGSGALRRFEYDYSGQGTLVTVSS
B15: the % reduction in experiment [2] stood at 91.4%; in experiment [3], 6%; in experiment [4], 97%; in experiment [5], 90%. For the same molecule, the ECLU confirmatory assay in experiment [2] turned out to be 251 ECLU; in experiment [3] it was 58 ECLU; in experiment [4], 570 ECLU; in experiment [5], 228 ECLU.

B16: Nb6.5 (VHH)
VHH: EVQLLESGGGLVQPGGSLRLSCAASGLPFSTKSMGWFRQAPGKGREFVSRISPGGTSRYYGDFVKGRFTISRDNSKNTLYLQMNSLRAEDTAVYYCASGERSTYIGSNYYRTNEYDYWGQGTLVTVSS
B16: the Binding (RU) in experiment [1] stood at 66 RU.
